The target in test [1] is T1, human c-Met/Fc fusion protein (R&D Systems) (human, UniProt P08581 25-932).
T1 construct: Immunogen and ELISA antigen; also called human c-Met/Fc protein; not shown: Fc part of the bought fusion protein; not described
The test can be described thus: ELISA, hybridoma culture on plate-coated human c-Met/Fc fusion protein. On the technique in general: An ELISA detects its analyte on a solid surface through an enzyme-linked reagent.

The target in test [2] is c-Met on cells (MKN45, Caki-1, NCI-H441, HUVEC) (human, UniProt P08581 25-1390). The test can be described thus: cell-based or functional assay.
Sequence of c-Met on cells (MKN45, Caki-1, NCI-H441, HUVEC) (P08581 25-1390): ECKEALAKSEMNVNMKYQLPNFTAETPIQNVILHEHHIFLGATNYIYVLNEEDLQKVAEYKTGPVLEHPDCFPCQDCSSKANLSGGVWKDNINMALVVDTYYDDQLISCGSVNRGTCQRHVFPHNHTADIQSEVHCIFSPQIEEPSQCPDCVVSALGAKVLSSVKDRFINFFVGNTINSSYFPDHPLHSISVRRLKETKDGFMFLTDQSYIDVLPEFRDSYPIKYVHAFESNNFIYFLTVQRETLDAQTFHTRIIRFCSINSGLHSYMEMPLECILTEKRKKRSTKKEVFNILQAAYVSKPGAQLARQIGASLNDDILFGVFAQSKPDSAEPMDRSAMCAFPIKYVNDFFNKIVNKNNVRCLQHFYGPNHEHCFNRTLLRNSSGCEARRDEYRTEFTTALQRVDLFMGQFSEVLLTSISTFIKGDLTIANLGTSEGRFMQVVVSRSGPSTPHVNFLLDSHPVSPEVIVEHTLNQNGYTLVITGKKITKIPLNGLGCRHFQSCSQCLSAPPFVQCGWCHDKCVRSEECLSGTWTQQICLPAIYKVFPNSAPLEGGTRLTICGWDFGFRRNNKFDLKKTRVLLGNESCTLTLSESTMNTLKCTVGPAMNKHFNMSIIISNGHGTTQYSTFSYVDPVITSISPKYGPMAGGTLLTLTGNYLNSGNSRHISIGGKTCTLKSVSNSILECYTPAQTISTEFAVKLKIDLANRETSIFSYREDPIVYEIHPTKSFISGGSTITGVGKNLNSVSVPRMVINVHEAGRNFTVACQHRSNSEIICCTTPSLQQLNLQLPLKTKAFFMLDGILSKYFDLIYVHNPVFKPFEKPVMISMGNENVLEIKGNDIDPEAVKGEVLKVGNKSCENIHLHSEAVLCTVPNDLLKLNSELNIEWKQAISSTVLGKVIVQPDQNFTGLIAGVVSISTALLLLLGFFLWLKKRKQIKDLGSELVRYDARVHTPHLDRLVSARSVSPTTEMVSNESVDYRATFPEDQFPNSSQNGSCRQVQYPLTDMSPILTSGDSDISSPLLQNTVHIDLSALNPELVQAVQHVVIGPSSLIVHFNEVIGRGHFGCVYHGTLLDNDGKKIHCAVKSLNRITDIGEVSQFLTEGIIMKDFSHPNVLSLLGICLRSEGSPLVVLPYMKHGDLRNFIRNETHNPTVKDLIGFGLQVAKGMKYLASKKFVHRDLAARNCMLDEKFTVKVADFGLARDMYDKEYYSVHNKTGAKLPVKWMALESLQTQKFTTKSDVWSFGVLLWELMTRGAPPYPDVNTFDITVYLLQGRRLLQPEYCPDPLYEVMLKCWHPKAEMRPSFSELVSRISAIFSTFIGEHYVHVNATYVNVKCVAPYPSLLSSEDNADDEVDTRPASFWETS
The target of test [3] is T2, c-Met (R&D Systems, Cat. No. 358-MT/CF) (UniProt P08581 25-932).
T2 construct: Bought protein used as analyte in SPR
T2 sequence (P08581 25-932 limits assumed): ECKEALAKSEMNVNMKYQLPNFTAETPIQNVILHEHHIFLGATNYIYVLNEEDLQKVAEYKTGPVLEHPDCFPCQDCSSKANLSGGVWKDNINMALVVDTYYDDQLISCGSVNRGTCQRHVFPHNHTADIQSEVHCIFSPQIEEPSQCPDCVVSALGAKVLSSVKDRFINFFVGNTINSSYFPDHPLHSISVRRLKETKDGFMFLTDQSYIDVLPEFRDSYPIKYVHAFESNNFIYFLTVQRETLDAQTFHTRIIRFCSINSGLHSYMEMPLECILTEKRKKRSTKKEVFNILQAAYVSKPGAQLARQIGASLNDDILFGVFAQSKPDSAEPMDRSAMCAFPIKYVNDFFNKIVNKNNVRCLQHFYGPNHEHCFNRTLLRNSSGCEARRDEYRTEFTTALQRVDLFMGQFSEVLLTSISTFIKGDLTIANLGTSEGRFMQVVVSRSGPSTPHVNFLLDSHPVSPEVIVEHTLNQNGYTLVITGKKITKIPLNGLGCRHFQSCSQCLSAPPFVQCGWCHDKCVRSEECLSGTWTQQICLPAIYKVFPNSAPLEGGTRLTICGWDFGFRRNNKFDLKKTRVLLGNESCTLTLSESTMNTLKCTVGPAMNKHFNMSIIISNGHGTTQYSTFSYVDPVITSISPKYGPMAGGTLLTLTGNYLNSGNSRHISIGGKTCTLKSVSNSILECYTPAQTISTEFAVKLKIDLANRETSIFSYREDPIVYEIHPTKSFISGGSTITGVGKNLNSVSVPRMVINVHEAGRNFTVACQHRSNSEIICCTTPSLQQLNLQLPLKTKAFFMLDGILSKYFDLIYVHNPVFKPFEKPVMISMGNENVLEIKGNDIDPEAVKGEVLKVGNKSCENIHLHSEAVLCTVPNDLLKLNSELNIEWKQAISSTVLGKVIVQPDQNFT
The test can be described thus: SPR, Biacore T100; antibody captured by human Fab binder on CM5 chip, c-Met injected. Here is the method: The binding kinetics of the double-targeted fusion proteins manufactured in the above were analyzed using Biacore T100 instrument (GE Healthcare). A human Fab binding agent (GE Healthcare) was immobilized on the surface of a CM5 chip (GE Healthcare, Cat. No. BR-1005-30) according to the manufacturer's manual. […] Then, 10 mM Glycine-HCl (pH 1.5) solution was added thereto, whereby the surface was regenerated. In order to measure the binding kinetics, the data obtained from the above experiment was fitted using BIAevaluation software (GE Healthcare, Biacore T100 evaluation software).

Test [4] has as its target hVEGF (GE Healthcare, 28-9583-25) (human, UniProt P15692-4 27-191). Briefly: SPR, Biacore T100; hVEGF immobilized on CM5 chip, MV10AY at 6 concentrations. Here is the method: The binding kinetics of the double-specific antibodies having VEGF as a target were measured by an SPR method using Biacore T100 instrument (GE Healthcare). hVEGF (GE Healthcare, 28-9583-25) was immobilized on the surface of a CM5 chip according to the manufacturer's manual. […] The obtained surface was regenerated by injecting 1M NaCl+30 mM NaOH at a fluid rate of 30 μl/min for 60 sec. In order to determine binding kinetics, the data obtained from the above experiment was fitted using BIAevaluation software (GE Healthcare) (K_{D=}=0.45 nM).
In general terms: Surface plasmon resonance follows binding to a sensor surface in real time, without labels.

As a reminder, the Kd is the free concentration of one partner at which half of the binding sites on the other are occupied at equilibrium, for simple one-to-one binding. A low value points to a tighter complex. One may read the koff as the first-order rate constant of dissociation. The term kon denotes a measure of how fast the partners come together.

Sequence of hVEGF (GE Healthcare, 28-9583-25) (P15692 other isoform, or with tags, fused parts or gaps limits assumed): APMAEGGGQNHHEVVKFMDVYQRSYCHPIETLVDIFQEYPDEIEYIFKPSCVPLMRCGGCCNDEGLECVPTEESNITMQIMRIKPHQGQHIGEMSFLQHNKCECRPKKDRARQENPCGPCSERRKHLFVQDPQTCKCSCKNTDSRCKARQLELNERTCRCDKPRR
T1 sequence (P08581 25-932 limits assumed): as the sequence (P08581 25-932 limits assumed) above

B1: AbF46, a mouse antibody to c-Met (antibody, V domains shown)
VH: EVKLVESGGGLVQPGGSLRLSCATSGFTFTDYYMSWVRQPPGKALEWLGFIRNKANGYTTEYSASVKGRFTISRDNSQSILYLQMDTLRAEDSATYYCARDNWFAYWGQGTLVTVSA
VL: DILMTQSPSSLTVSAGEKVTMSCKSSQSLLASGNQNNYLAWHQQKPGRSPKMLIIWASTRVSGVPDRFIGSGSGTDFTLTINSVQAEDLAVYYCQQSYSAPLTFGAGTKLELK
notes: also called monoclonal antibody of hybridoma KCLRF-BP-00220
Take B1: the binding result in test [1] is “binds”.

B2: MV10A (bispecific antibody)
heavy: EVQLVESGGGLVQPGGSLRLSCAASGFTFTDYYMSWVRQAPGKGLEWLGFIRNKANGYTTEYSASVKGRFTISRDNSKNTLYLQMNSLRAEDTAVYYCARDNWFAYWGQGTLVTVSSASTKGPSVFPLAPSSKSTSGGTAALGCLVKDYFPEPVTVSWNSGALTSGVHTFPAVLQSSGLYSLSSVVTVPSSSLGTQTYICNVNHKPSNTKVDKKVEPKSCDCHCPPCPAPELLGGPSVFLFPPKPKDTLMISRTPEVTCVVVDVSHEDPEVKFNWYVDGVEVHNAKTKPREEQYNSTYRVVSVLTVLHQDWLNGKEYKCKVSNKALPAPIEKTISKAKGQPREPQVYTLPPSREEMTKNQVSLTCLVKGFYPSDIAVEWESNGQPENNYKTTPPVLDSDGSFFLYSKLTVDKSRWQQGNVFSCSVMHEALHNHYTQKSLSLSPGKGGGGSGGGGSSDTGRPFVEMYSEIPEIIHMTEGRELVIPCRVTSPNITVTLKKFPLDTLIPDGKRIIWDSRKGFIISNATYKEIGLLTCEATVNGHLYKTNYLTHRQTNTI
light: DIQMTQSPSSLSASVGDRVTITCKSSQSLLASGNQNNHLAWYQQKPGKAPKMLIIWASTRVSGVPSRFSGSGSGTDFTLTISSLQPEDFATYYCQQSYSRPYTFGQGTKVEIKRTVAAPSVFIFPPSDEQLKSGTASVVCLLNNFYPREAKVQWKVDNALQSGNSQESVTEQDSKDSTYSLSSTLTLSKADYEKHKVYACEVTHQGLSSPVTKSFNRGEC
With B2, in test [2], the “AKT phosphorylation inhibitory ability (phospho-AKT Ser473 ELISA, Caki-1 cells, compared to 5D5 control group)” value stood at 79% and the “c-Met degradation ability (total c-Met ELISA, MKN45 cells, 5 ug/ml antibody, 24 h)” value is 76%.

B3: MV10AY U3 HC9/IgG2 (bispecific antibody)
heavy: EVQLVESGGGLVQPGGSLRLSCAASGFTFTDYYMSWVRQAPGKGLEWLGFIRNKANGYTTEYSASVKGRFTISRDNSKNTLYLQMNSLRAEDTAVYYCARDNWFAYWGQGTLVTVSSASTKGPSVFPLAPCSRSTSESTAALGCLVKDYFPEPVTVSWNSGALTSGVHTFPAVLQSSGLYSLSSVVTVPSSNFGTQTYTCNVDHKPSNTKVDKTVERKCCVECPPCPAPPVAGPSVFLFPPKPKDTLMISRTPEVTCVVVDVSHEDPEVQFNWYVDGVEVHNAKTKPREEQFNSTFRVVSVLTVVHQDWLNGKEYKCKVSNKGLPAPIEKTISKTKGQPREPQVYTLPPSREEMTKNQVSLTCLVKGFYPSDIAVEWESNGQPENNYKTTPPMLDSDGSFFLYSKLTVDKSRWQQGNVFSCSVMHEALHNHYTQKSLSLSPGKGGGGSGGGGSSDTGRPFVEMYSEIPEIIHMTEGRELVIPCRVTSPNITVTLKKFPLDTLIPDGKRIIWDSRKGFIISNATYKEIGLLTCEATVNGHLYKTNYLTHRQTNTI
light: DIQMTQSPSSLSASVGDRVTITCKSSQSLLASGNQNNYLAWYQQKPGKAPKMLIIWASTRVSGVPSRFSGSGSGTDFTLTISSLQPEDFATYYCQQSYSRPYTFGQGTKVEIKRTVAAPSVFIFPPSDEQLKSGTASVVCLLNNFYPREAKVQWKVDNALQSGNSQESVTEQDSKDSTYSLSSTLTLSKADYEKHKVYACEVTHQGLSSPVTKSFNRGEC
B3: in test [3], the Kd is under 0.01 nM, the off-rate constant (koff) was under 6.9e-05 s⁻¹ and the kon is 720000 M⁻¹ s⁻¹.

B4: MV10AY (bispecific antibody)
heavy: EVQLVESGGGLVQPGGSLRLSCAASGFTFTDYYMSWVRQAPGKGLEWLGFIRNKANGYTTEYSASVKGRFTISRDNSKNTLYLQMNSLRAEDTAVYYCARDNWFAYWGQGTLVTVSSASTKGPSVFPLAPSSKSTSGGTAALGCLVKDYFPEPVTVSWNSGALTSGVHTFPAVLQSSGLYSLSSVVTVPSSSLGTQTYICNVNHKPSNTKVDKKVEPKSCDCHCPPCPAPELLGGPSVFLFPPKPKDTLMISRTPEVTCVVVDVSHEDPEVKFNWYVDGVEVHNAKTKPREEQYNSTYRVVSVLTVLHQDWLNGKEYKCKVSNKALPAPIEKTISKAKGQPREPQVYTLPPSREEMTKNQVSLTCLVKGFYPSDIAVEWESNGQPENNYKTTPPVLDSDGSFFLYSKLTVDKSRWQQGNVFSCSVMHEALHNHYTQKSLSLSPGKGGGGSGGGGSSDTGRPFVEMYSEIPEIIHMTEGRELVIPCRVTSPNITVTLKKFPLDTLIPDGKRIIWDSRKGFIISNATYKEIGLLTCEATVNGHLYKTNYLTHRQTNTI
light: DIQMTQSPSSLSASVGDRVTITCKSSQSLLASGNQNNYLAWYQQKPGKAPKMLIIWASTRVSGVPSRFSGSGSGTDFTLTISSLQPEDFATYYCQQSYSRPYTFGQGTKVEIKRTVAAPSVFIFPPSDEQLKSGTASVVCLLNNFYPREAKVQWKVDNALQSGNSQESVTEQDSKDSTYSLSSTLTLSKADYEKHKVYACEVTHQGLSSPVTKSFNRGEC
notes: also called bispecific antibody MV10AY; double-specific antibody MV10AY
In test [3], B4 yielded an equilibrium dissociation constant (Kd) of under 0.01 nM, a koff of under 1.4e-05 s⁻¹ and a kon of 680000 M⁻¹ s⁻¹. Besides, in test [2], the “AKT phosphorylation inhibitory ability (phospho-AKT Ser473 ELISA, Caki-1 cells, compared to 5D5 control group)” value stood at 74% and the “c-Met degradation ability (total c-Met ELISA, MKN45 cells, 5 ug/ml antibody, 24 h)” value came to 72%. In test [4], this molecule gave a Kd of 0.45 nM, a koff of 0.0011 s⁻¹ and a kon of 2.4e+06 M⁻¹ s⁻¹.

B5: Ab2 (antibody, V domains shown)
VH: QVQLVQSGAEVKKPGASVKVSCKASGYIFTAYTMHWVRQAPGQGLDWMGGIKPNNGLANYAQKFQGRVTMTVDKSISTAYMELSRLRSDDTAVYYCARSEITTEFDYWGQGTLVTVSS
VL: DIVLTQSPDSLAVSLGERATINCRSSESVDSYANSFMHWYQQKPGQPPKLLIYRASTRESGVPDRFSGSGSRTDFTLTISSLQAEDVAVYYCQQSKEDPLTFGGGTKVEIKR
For B5, the “c-Met degradation ability (total c-Met ELISA, method of Example 2.2)” value in test [2] turned out to be 70.4%.

B6: huAbF46-H4-A1 (L3-1 origin) (antibody, V domains shown)
VH: EVQLVESGGGLVQPGGSLRLSCAASGFTFTDYYMSWVRQAPGKGLEWLGFIRNKANGYTTEYSASVKGRFTISRDNSKNTLYLQMNSLRAEDTAVYYCARDNWFAYWGQGTLVTVSS
VL: DIQMTQSPSSLSASVGDRVTITCKSSQSLLASGNQNNHLAWYQQKPGKAPKMLIIWASTRVSGVPSRFSGSGSGTDFTLTISSLQPEDFATYYCQQSYSRPYTFGQGTKVEIKR
With B6, in test [2], the “AKT phosphorylation inhibitory ability (phospho-AKT Ser473 ELISA, Caki-1 cells, compared to 5D5 control group)” value worked out at 69% and the “c-Met degradation ability (total c-Met ELISA, MKN45 cells, 5 ug/ml antibody, 24 h)” value is 68%.

B7: L3-1Y (antibody, V domains shown)
VH: EVQLVESGGGLVQPGGSLRLSCAASGFTFTDYYMSWVRQAPGKGLEWLGFIRNKANGYTTEYSASVKGRFTISRDNSKNTLYLQMNSLRAEDTAVYYCARDNWFAYWGQGTLVTVSS
VL: DIQMTQSPSSLSASVGDRVTITCKSSQSLLASGNQNNYLAWYQQKPGKAPKMLIIWASTRVSGVPSRFSGSGSGTDFTLTISSLQPEDFATYYCQQSYSRPYTFGQGTKVEIKR
notes: also called c-Met single-targeted antibody L3-1Y
For B7, in test [3], the Kd is under 0.01 nM, the koff was under 1.2e-05 s⁻¹ and the kon came to 770000 M⁻¹ s⁻¹. In test [2], the “AKT phosphorylation inhibitory ability (phospho-AKT Ser473 ELISA, Caki-1 cells, compared to 5D5 control group)” value is 63% and the “c-Met degradation ability (total c-Met ELISA, MKN45 cells, 5 ug/ml antibody, 24 h)” value was 66%.
